Experimental data reported in patent publication US20150203577A1 (Chugai, published 2015).
Substitutions are numbered along the chain they refer to.

T1: mouse FcγRII (mouse, UniProt P08101 30-210)
T1 construct: also called mFcγRII; mFcgRII
T1 sequence: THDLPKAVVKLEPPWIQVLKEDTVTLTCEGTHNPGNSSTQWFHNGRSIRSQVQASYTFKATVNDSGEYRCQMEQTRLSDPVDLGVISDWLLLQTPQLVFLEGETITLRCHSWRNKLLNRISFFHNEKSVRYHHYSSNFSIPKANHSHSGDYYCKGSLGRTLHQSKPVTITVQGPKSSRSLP

T2: mouse FcγRIII (mouse, UniProt P08508 31-215)
T2 construct: also called mFcγRIII; mFcgRIII
T2 chain: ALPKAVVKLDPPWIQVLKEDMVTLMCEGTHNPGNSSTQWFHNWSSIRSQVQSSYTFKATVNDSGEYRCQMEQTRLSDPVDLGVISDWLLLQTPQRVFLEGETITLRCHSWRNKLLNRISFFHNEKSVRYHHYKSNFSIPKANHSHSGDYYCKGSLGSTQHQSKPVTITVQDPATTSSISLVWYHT

T3: mouse FcγRII extracellular domain, C-terminal His tag (mouse, UniProt P08101 30-210)
T3 construct: Whole entry named; also called mFcγRII; mFcgRII
T3 sequence: T1 sequence

T4: mouse FcγRIII extracellular domain, C-terminal His tag (mouse, UniProt P08508 31-215)
T4 construct: Whole entry named; also called mFcγRIII; mFcgRIII
T4 chain: T2 chain

B1: MB325 (antibody, mouse IgG1, kappa)
heavy: QVQLQESGPGLVKPSETLSLTCAVSGHSISHDHAWSWVRQPPGEGLEWIGFISYSGITNYNPSLQGRVTISRDNSKNTLYLQMNSLRAEDTAVYYCARSLARTTAMDYWGEGTLVTVSSAKTTPPSVYPLAPGSAAQTNSMVTLGCLVKGYFPEPVTVTWNSGSLSSGVHTFPAVLQSDLYTLSSSVTVPSSTWPSETVTCNVAHPASSTKVDKKIVPRDCGCKPCICEVEEVEDEFIFPPKPKDVLTITLTPKVTCVVVDISKDDPEVQFSWFVDDVEVHTAQTQPREEQFNSTFRSVSELPIMHQDWLNGKEFKCRVNSAAFPAPIEKTISKTKGRPKAPQVYTIPPPKEQMAKDKVSLTCMITDFFPEDITVEWQWNGQPAENYKNTQPIMDTDGSYFVYSKLNVQKSNWEAGNTFTCSVLHEGLHNHHTEKSLSHSPGK
light: not shown
notes: copies: 2 + 2
B2: MB326 (antibody, mouse IgG1, kappa)
heavy: B1 heavy with E236H
light: not shown
notes: copies: 2 + 2
B3: H237-MB364/MRAL-k0 (antibody)
heavy: B1 heavy with V230A, E231K, E236V
light: not shown
notes: copies: 2 + 2
B4: H237-MB561/MRAL-k0 (antibody, mouse IgG1, kappa)
heavy: B1 heavy with E229T, E231P, V233E, D235S, E236V
light: not shown
notes: copies: 2 + 2
B5: H237-MB562/MRAL-k0 (antibody, mouse IgG1, kappa)
heavy: B1 heavy with E229T, E231P, D235F, E236V
light: not shown
notes: copies: 2 + 2
B6: H237-MB563/MRAL-k0 (antibody, mouse IgG1, kappa)
heavy: B1 heavy with E229T, E231P, D235W, E236V
light: not shown
notes: copies: 2 + 2
B7: H237-MB564/MRAL-k0 (antibody, mouse IgG1, kappa)
heavy: B1 heavy with E229T, E231P, D235S, E236V, F237D
light: not shown
notes: copies: 2 + 2
B8: H237-MB565/MRAL-k0 (antibody, mouse IgG1, kappa)
heavy: B1 heavy with E229T, E231P, D235S, E236V, F237E
light: not shown
notes: copies: 2 + 2
B9: H237-MB566/MRAL-k0 (antibody, mouse IgG1, kappa)
heavy: B1 heavy with E229T, E231P, D235S, E236V, F237T
light: not shown
notes: copies: 2 + 2
B10: H237-MB567/MRAL-k0 (antibody, mouse IgG1, kappa)
heavy: B1 heavy with E229T, E231P, D235S, E236V, S263M
light: not shown
notes: copies: 2 + 2
B11: H237-MB568/MRAL-k0 (antibody, mouse IgG1, kappa)
heavy: B1 heavy with E229T, E231P, D235S, E236V, S294H
light: not shown
notes: copies: 2 + 2
B12: H237-MB571/MRAL-k0 (antibody, mouse IgG1, kappa)
heavy: B1 heavy with E229T, E231P, V233E, E234S, D235F, E236V
light: not shown
notes: copies: 2 + 2
B13: H237-MB572/MRAL-k0 (antibody, mouse IgG1, kappa)
heavy: B1 heavy with E229T, E231P, V233E, E234S, D235W, E236V
light: not shown
notes: copies: 2 + 2
B14: H237-MB573/MRAL-k0 (antibody, mouse IgG1, kappa)
heavy: B1 heavy with E229T, E231P, V233E, E234S, D235S, E236V, F237D
light: not shown
notes: copies: 2 + 2
B15: H237-MB574/MRAL-k0 (antibody, mouse IgG1, kappa)
heavy: B1 heavy with E229T, E231P, V233E, E234S, D235S, E236V, F237E
light: not shown
notes: copies: 2 + 2
B16: H237-MB575/MRAL-k0 (antibody, mouse IgG1, kappa)
heavy: B1 heavy with E229T, E231P, V233E, E234S, D235S, E236V, F237T
light: not shown
notes: copies: 2 + 2
B17: H237-MB576/MRAL-k0 (antibody, mouse IgG1, kappa)
heavy: B1 heavy with E229T, E231P, E234S, D235F, E236V, F237D
light: not shown
notes: copies: 2 + 2
B18: H237-MB577/MRAL-k0 (antibody, mouse IgG1, kappa)
heavy: B1 heavy with E229T, E231P, E234S, D235F, E236V, F237E
light: not shown
notes: copies: 2 + 2
B19: H237-MB578/MRAL-k0 (antibody, mouse IgG1, kappa)
heavy: B1 heavy with E229T, E231P, E234S, D235F, E236V, F237T
light: not shown
notes: copies: 2 + 2
B20: H237-MB579/MRAL-k0 (antibody, mouse IgG1, kappa)
heavy: B1 heavy with E229T, E231P, E234S, D235W, E236V, F237D
light: not shown
notes: copies: 2 + 2
B21: H237-MB580/MRAL-k0 (antibody, mouse IgG1, kappa)
heavy: B1 heavy with E229T, E231P, E234S, D235W, E236V, F237E
light: not shown
notes: copies: 2 + 2
B22: H237-MB581/MRAL-k0 (antibody, mouse IgG1, kappa)
heavy: B1 heavy with E229T, E231P, E234S, D235W, E236V, F237T
light: not shown
notes: copies: 2 + 2
B23: H237-MB584/MRAL-k0 (antibody, mouse IgG1, kappa)
heavy: B1 heavy with E229T, E231P, V233E, E234D, D235S, E236V
light: not shown
notes: copies: 2 + 2
B24: H237-MB585/MRAL-k0 (antibody, mouse IgG1, kappa)
heavy: B1 heavy with E229T, E231P, E234D, D235F, E236V
light: not shown
notes: copies: 2 + 2
B25: H237-MB586/MRAL-k0 (antibody, mouse IgG1, kappa)
heavy: B1 heavy with E229T, E231P, E234D, D235W, E236V
light: not shown
notes: copies: 2 + 2
B26: H237-MB587/MRAL-k0 (antibody, mouse IgG1, kappa)
heavy: B1 heavy with E229T, E231P, E234D, D235S, E236V, F237D
light: not shown
notes: copies: 2 + 2
B27: H237-MB588/MRAL-k0 (antibody, mouse IgG1, kappa)
heavy: B1 heavy with E229T, E231P, E234D, D235S, E236V, F237E
light: not shown
notes: copies: 2 + 2
B28: H237-MB589/MRAL-k0 (antibody, mouse IgG1, kappa)
heavy: B1 heavy with E229T, E231P, E234D, D235S, E236V, F237T
light: not shown
notes: copies: 2 + 2
B29: H237-MB591/MRAL-k0 (antibody, mouse IgG1, kappa)
heavy: B1 heavy with E229T, E231P, E234D, D235S, E236V, S294H
light: not shown
notes: copies: 2 + 2
B30: H237-MB595/MRAL-k0 (antibody, mouse IgG1, kappa)
heavy: B1 heavy with E231P, D235F, E236V
light: not shown
notes: copies: 2 + 2
B31: H237-MB596/MRAL-k0 (antibody, mouse IgG1, kappa)
heavy: B1 heavy with E231P, D235W, E236V
light: not shown
notes: copies: 2 + 2
B32: H237-MB597/MRAL-k0 (antibody, mouse IgG1, kappa)
heavy: B1 heavy with E231P, D235S, E236V, F237D
light: not shown
notes: copies: 2 + 2
B33: H237-MB598/MRAL-k0 (antibody, mouse IgG1, kappa)
heavy: B1 heavy with E231P, D235S, E236V, S263M
light: not shown
notes: copies: 2 + 2

Molecular target: T1, mouse FcγRII
Test: SPR Biacore T200, KD ratio
Excerpt: (§1) The antibody H chain variable region used was the variable region H237 (SEQ ID NO: 1) of the H chain VH3-IgG1 of the anti-IL-6 receptor antibody Fv4-IgG1 described in WO2009/125825. The antibody L chain commonly used was the L chain MRAL-k0 (SEQ ID NO: 2) of the anti-IL-6 receptor antibody tocilizumab. […] The resulting variant group was designated as MB110 variants. These variants were expressed and purified by the method of Reference Example 1 and evaluated for their binding to mFcγRII and mFcγRIII by the method of Reference Example 2 using Biacore T200.
(§2) Each altered antibody was analyzed for its interaction with each Fcγ receptor prepared above using Biacore T100 (GE Healthcare Japan Corp.), Biacore T200 (GE Healthcare Japan Corp.), Biacore A100, or Biacore 4000. The running buffer used was HBS-EP+ (GE Healthcare Japan Corp.). The assay temperature was set to 25° C. The sensor chips used were chips prepared by immobilizing Protein L (ACTIGEN or BioVision) onto Series S Sensor Chip CM5 (GE Healthcare Japan Corp.) or Series S Sensor Chip CM4 (GE Healthcare Japan Corp.) by the amine coupling method.
(§3) In order to calculate the KD value of each altered antibody for FcγR, kinetic analysis was conducted according to the following method: first, the antibody of interest was captured onto any of these chips and allowed to interact with mFcγR diluted with a running buffer. For the obtained sensorgram, the assay results were globally fit into the 1:1 Langmuir binding model using Biacore Evaluation Software to calculate an association rate constant ka (L/mol/s) and a dissociation rate constant kd (1/s). From these values, the dissociation constant KD (mol/L) was calculated.

Binder	Relative mFcγRII-binding activity (MB110 = 1) [fold]	relative mFcγRII-binding activity (mIgG1 = 1) [fold]
B1	0.38	4.7
B2	0.33	4

Molecular target: T2, mouse FcγRIII
Test: SPR Biacore T200, KD ratio
Excerpt: as §1, §2, §3

Binder	Relative mFcγRIII-binding activity (MB110 = 1) [fold]	relative mFcγRIII-binding activity (mIgG1 = 1) [fold]
B1	0.15	0.6
B2	0.06	0.2

Molecular target: T3, mouse FcγRII extracellular domain, …
Test: SPR (Biacore T200); KD of H237-mIgG1/MRAL-k0 / KD of variant

Binder	relative mFcγRII-binding activity (mIgG1 = 1) [fold]
B3	6.55
B4	0.48
B5	0.05
B6	0.2
B7	0.32
B8	0.66
B9	0.18
B10	0.21
B11	0.71
B12	0.22
B13	0.26
B14	0.43
B15	0.27
B16	0.08
B17	1.54
B18	2.51

Binder	relative mFcγRII-binding activity (mIgG1 = 1) [fold]
B19	0.39
B20	0.89
B21	1.38
B22	0.69
B23	0.08
B24	0.06
B25	0.13
B26	1.33
B27	2.01
B28	0.23
B29	0.08
B30	0.09
B31	0.55
B32	1.28
B33	0.41

Molecular target: T4, mouse FcγRIII extracellular domain, …
Test: as above

Binder	relative mFcγRIII-binding activity (mIgG1 = 1) [fold]
B3	1.35
B4	0.07
B5	0.02
B6	0.08
B7	0.11
B8	0.23
B9	0.1
B10	0.07
B11	0.18
B12	0.05
B13	0.07
B14	0.06
B15	0.1
B16	0.05
B17	0.6
B18	1.19

Binder	relative mFcγRIII-binding activity (mIgG1 = 1) [fold]
B19	0.25
B20	0.34
B21	0.61
B22	0.42
B23	0.02
B24	0.03
B25	0.08
B26	0.6
B27	1.01
B28	0.19
B29	0.02
B30	0.05
B31	0.17
B32	0.54
B33	0.08
